Test: yeast display, Sf9 membrane polyspecificity reagent, FACS + sequencing; frameworks hold sequencing errors
Method in brief: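 Using colony PCR, genes from sorted yeast display clones were amplified, then sequenced on MiSeq at 2 × 250 and filtered by CDR length. The clones had been stained with 10% biotinylated, detergent-solubilized Sf9 membrane reagent for 1 hour at 4 °C and sorted by FACS into low and high (top ~1%) gates on anti-HA and streptavidin fluorescence. Polyreactivity labels come from the gate of origin.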

Sequence	polyreactivity (PSR sort gate)
QVQLVESGGGLVQAGGSLRLSCAASGRTFIYYAMGWYRQAPGKERELVAGISRNGGRTYYADSVKGRFTISRDNAKNTVYLQMNSLKPEDTAVYYCNAYPPSRHDYWGQGTQVTVSS	high polyreactivity
QVQLVESGGGLVQAGGSLRLSCAASGFTFPFYAMGWYRQAPGKERELVAAITSRGGSTYYADSVKGRFTISRDNAKNTVYLQMNSLKPEDTAVYYCAADESGADYYYWGQGTQVTVSS	high polyreactivity
QVQLVESGGGLVQAGGSLRLSCAASGRTFKRNAMGWYRQAPGKERELVASISWRGGSTYYADSVKGRFTISRDNAKNTVFLQMKSLKPEDTAVYYCAAQYPVWRRLYRTWLVAEVDYWGQGTQVTVSS	low polyreactivity
QVQLVESGGGLVQAGGSLRLSCAASGLTFVSYAMGWYRQAPGKERELVAAISYGGGSTNYADSVKGRFTISRDNAKNTVDLQMNSLKPEDTAVYYCAAEPGYYDEYGYWGQGTQVTVSS	low polyreactivity
QVQLVESGGGLVQAGGSLRLSCAASGSTFPSYAMGWYRQAPGKERELVAVITSGGRTYYADSVKGRFTISRDNAKNTVYLQMNSLKPEDTAVYYCAARGHRGYQGYDYWGQGTPVTVSS	high polyreactivity
QVQLVESGGGLVQAGRSLRLSCAASGSIFYKYARGWYRQAPGKERELVAAISRSRGSTYYADSVKGRFTISRDNAKNTVYLQMNSLKPEDTAVYYCNAYYRYSFSELDKYGYWGQGTQVTVSS	high polyreactivity
QFQLVESGGGLVQAGGSLRLSCAASGIIFDYNAMGWYRQAPGKERELVAAITRGGSTYYADSVNGRFTISRDNAKNTVYVQMTSLKPEDTAVYYCKAVLPVHWSWYDYWGQGTQVTVSS	low polyreactivity
QVQLVESGGGLVQAGGSLRLSCAASGYTFRFNAMGWYRQAPGKERELVARISKSGGSTYYADSVKGRFTISRDNAKNTVYLQMNSLKPEDTAVYYCAAKDYVWGQGTQVTVSS	low polyreactivity
QVQLVESGGGLVQAGGSLRLSCAASGRILYPYAMGWYRQAPGKERELVAAITFIGGTTYYADSVKGRFTLSRDNAKNTLYLQRNSLKQEDTAVYYCSTAGPYGSRNDYWGQGTQVTVSS	high polyreactivity
QVQLVESGGGLVQAGGSLRLSCAASGRTFDGYAMGWYRPAPGKERELVAAITYTGGSTYYADSVKGRFTISRDNAKNTVYLQMNSLKPEDTAVYYCNALYAVYSDFADDYWGQGTQVTVSS	low polyreactivity
QFQLVESGVGLVQAGGSLRLSCAASVRINYAYAMGWYRQTPGKERELVAAISTRGGNTYYADSVKGRFTISRDNAMNTVYLQINSLIPEETEVYYCNALSVSRRFGYDSWGQGTQVTVSS	high polyreactivity
QVQLVESGGGLVQAGGSLRLSCAASGNTLLSYAMGWYRQAPGKEWELVAAISIDGSTIYADSVKGRFTISRDNAKNTVYLQMNSLKPEDTAVYYCNADRTPFAEMDYWGQGTQVTVSS	low polyreactivity
QVQLVESGGGLVKAGGSHRLSLASYGTFRYYAMGWYRQAPGKERELDAGISRSGGSTYYEDSVKGRFTISRDNAKNTVYLQMNSQNPEDTEVYDCAAGNYYYWYKTKYYHYDYWGQGTQVTVSS	high polyreactivity
QVQLQESCGGLVQVGGSLRLSCAASVTIFIYGFLGWYRQAPGKERELVASINLGGITNYADSVKGRFTISRDNANNTVYLQMISLKPEDTAVYYCAAYVVTGQNYGYWGQGTQVTVSS	low polyreactivity
QVQLVESGGGLVQAGGSLRLSCAASGSTFRRNAMGWYRKAPGKERELVAAISSTGGSTRYADSVKGRFTISRDNAKNTVYLQMNSLKPEDTAVYYCAARFSASGSFYYWGQGTQVTVSS	high polyreactivity
QVQLVESGGGLVQAGGSLRLSSAASGSTFRGNAMGWYRQAPGKERELVAAISAIGGSTYYADSVKGRFTISRDNAKNTVYLQMNSLKPEDTAVYYCAARYLYLLGGFNYWGQGTQVTVSS	high polyreactivity
QVQLVESGGGLVQAGGSLRLSCAASGLIFVYYTMGWYRQAPGKERELVAAIRSGGGTNYADSVKGRFTISRDNAKNTVYFQMNSLKPEDTAVYYCAASIRSYAYGGRKYNYWGQGSQVTVSS	high polyreactivity
QVQLQVSGGDLVPAGGSLRLSCAGSGTIYGLTSMAWYRQAPGKEREFVAAITDGGNANYADSVKGRFTISRDNAKNTVYLQMISLKPEDTAVYYCAVLFSDDAYYAYWGQGTQVTVSS	low polyreactivity
QVQLVESGGGLVQAGGSLRLSCAPSGRTFGYNAMGWYRQAPGKESELVAGISSSDASTYYADSVKGRFTISRDNAKNTVYLQMNSLKPEDTAVYYCAATFGFFYYQYDYWGQGTQVTVSS	low polyreactivity
QDQLVESGGGLVQAGGSLRLSCAASGSIFWLNAMGWYRQAPGKERELVAAITTVDSTYYADSVKGRFTISRDNAKNTVYLQMNSLKPEDTAVYYCAASGRQSRYDYWGQGTQVTVSS	low polyreactivity
QVQLVESGGGLVQAGGSLRLSCAASGIFRRYAMGWYREAPGKERELVAAISSNGGSTYYADSVKGRFTISRDNAKNTVYLQMNSLKPEDTAVYYCNADVYVWNYKYYSWGQGTQVTVSS	high polyreactivity
QVQLVESGGGLVQAGGSLRLSCAASGFTFGLYAMGWYRQAPGKERELVAVISSSGGSTYYADSVKGRFTISRDNAKNTVYLQMNSLTPEDTAVYYCAKDFEAGDDYFAYDYWGQGTQVTVSS	low polyreactivity

Sequence	polyreactivity (PSR sort gate)
QVQLVESGGGLVQAGGSLRLSCAASGSNFVYNAMGWYRPAPGKERELVAAITGRVGSTYYADSVKGRFTISRDNAKNTVYLQMISLKPEDTAVYYCAARSYFKWWYAMDYWGQGTQVSVSS	high polyreactivity
QVQLVESGGGLVQAGGSLRLSCAASGRIFRIYAMGWYRQAPGKERELVARITYSGGSTYYADSVKGRFTISRDNAKNTVYLQMNSLKPEDTAVYYCNAYFIYEGGWYYKAQYDYWGQGTQVTVSS	low polyreactivity
QVQLVESGGGLVQAGGSLRLSCAASGITFCYYGMGRYRQAPGKERELVAAISSGGRTYYADSVKGRFTISRDNAKNTVYLQMNSLNPEDSAVYYCADRTKYIFVYQGVYWGQGTQVTVSS	high polyreactivity
QVQLVESGGGLVQAGGSLRLSCAASGSIFLHNAMGWYRQAPGKERELVAGITSSGTSTYYADSVKGRFTISRDNEKNTVYLQMNSLKPEDTAVYYCAAYRYGSRGGYCGQGTQVTVSS	high polyreactivity
QVQLVESGGGLVQAGGSLRLSCAASGRIFPYYTRGWYRQAPGKERELVATITTGGSTNYADSVKGRFTISRDNAENTVYLQMNSLKPEDTAVYYCAKREASSRWPYDYWGQGTQVTVSS	low polyreactivity
QVQLVESGGGLVQAGGSLRLSSAGSGSTLAYNAMGWYRQAPGKERELVAAISRGTSTYYADSVKGRFTISRDNAKNTVYLQMNSLKPEDTEVYYCAADYVIQYREYDSWGQGTQVTVSS	low polyreactivity
QVQLVESGGGLVQAGGSLRLSCAASGSTSTLYAMGWYRQAPGKERELVAAISKSGGRTYYADSVKGRFTISRDNAKNTVYLQMNSLKPEDTAVYYCNTVPGRYRTFDYWGQGTQVTVSS	high polyreactivity
QVQLVESAGGLVQAGGSLRLSCAASGFIFRFNAMGWYRQAPGKERELVAAISWSGSSTYYADSVKGRFTISRDNAKNTVYLQMNSLKPEDTAVYYCATSAFYYKIVKGDFYYWGQGTQVTVSS	high polyreactivity
QVQLVESGGGLVQAGGSLRLSCAASGFTFRYYAMGSYRQAPGKERELVAAISAGGGSTYYADSVKGRFTISRDNAKNTVYLQMNSLKPEDTAVYYCAAAGARPGYDYWGQGTQVTVSS	high polyreactivity
QVQLVESGGGLVQAGGSLRLSCAASGNIFTGNDMGWYRQAPGKERELVAAISKRGGSTFYADSVKGRFTISRDNAKNTVYLQMNSLKPEDTEGYYCNALRRGVRDPYGYWGQGTQVTVSS	high polyreactivity
QVQLVESGGGLVQAGGSLRLSCAASGRIFGVNAMGWYRQAPWKERELVAAINYSGGRTSYADSVKGRFTISRDNAKNTVYLQMNSLKPEDTAVYYCNAGGRRRIFAHSSTGDYWGQGTQVTVSS	high polyreactivity
QVQLVESGGGLVQAGGSLRLSCAASGITLYYYTMGWYRQAPGKERELVAAISGSGGSTYYADSVKGRFTISRDNAKNTVYLQMNSLKPEDTAVYYCNTARSLKNHFYKYDYWGHGTQVTVSS	high polyreactivity
QVQLVESGGGLVQAGGSLRLSCAASGSTFQTYAMGGYRQAPGKEREFVAAITSGGSTNYADSVKGRFTISRDNAKNTVYLQMNSLKPEDTAVYYCAVRQIYQTSDHRLQYDYWGQGTQVTVSS	low polyreactivity
QVQLVESGGGLVQAGGSLRLSCAASGRIFVKNAMGWYIQAPGKERELVAAISASGGSTYYADSVKGRFTISRDYSKNTVYLQMNSLKPEYTAVYYCARVLRRRYLSEFDYWGQGTQVTVSS	high polyreactivity
QVQLVESGGGLVQAGGSLRLSCAASGNTFQDYAMGWYRQAPGKERELVAAITQSGGSTFYADSVKGRFTISRDNAKNTVYLQMNSLKPEDTAVYYCATRTRYPRYYYWGQGTQVTVSS	high polyreactivity
QVQLVESGGGLVQAGGSLRLSCAASGSIFGIYAKGWYRQAPGKERELVAAITTTGGTSDYADSVKGRFTISRENAKNTVYVQMKSLKPVDTAVYYCAADAYYYWYYSLDYYYWGQGTQVTVSS	high polyreactivity
QVQLVESGGGLVQAGGSLRLSCAASGRTFHRNAMGWYRQAPGKERELVAAITGDGRTNYADSVKGRFTISRDNAKNTVYLQMNSLKPEDTAVYYCNRDNDYYRPGGRPVGIFDYWGQGTQVTVSS	low polyreactivity
QVQLVESGGGIVQAGGSLRLSCAASGRTFKRYAMGWYRPAPGKERELVAAITRSGGSTYYADSVKGRFTISRDNAKNTVYLQMNSLKPEDTAVYYCATRSYNNELEYWGQGTQVTVSS	high polyreactivity
QVHLVESGGGLVQAGGSLRLSCAASGFTFSFYAMGWYRQAPGKERELVAAIDRSGGSTYYADSVKGRFTISRDNAKNTVYLQMNSLKPEDTAFYYCAATVFYGYYYWGQGTQVTVSS	high polyreactivity
QVQLVESGGGLVQAGGTLRLSCAATGRTFAPNSMGWYRHAPGKERELFAAISWSGTSTYYADSVKGRFTISRDNAKNTVYLQMNSLKPEDTAVYYCAADLEGRVGSPWTYDYWGQGTQVTVSS	low polyreactivity
QVQLVESGGGLVQAGGSLRFSCAASGRTFTVYAMGWYRQAPGKERELVAAINYSVGSTYYADSVKGRFTISRDNAKNTVYLQMNSLKPEDTAVYYCAADLYHFSYSYSYIRYDYWGQGTQVTVSS	low polyreactivity

— the nanobody polyreactivity screen of Harvey et al. (2022)
